Columns and labels:
[1] = target: GST-CCA1, P92973
[2] = target: glutathione-S-transferase (GST) [GST: P08515]
[3] = target: T1, His-tagged CKB3
T1 chain: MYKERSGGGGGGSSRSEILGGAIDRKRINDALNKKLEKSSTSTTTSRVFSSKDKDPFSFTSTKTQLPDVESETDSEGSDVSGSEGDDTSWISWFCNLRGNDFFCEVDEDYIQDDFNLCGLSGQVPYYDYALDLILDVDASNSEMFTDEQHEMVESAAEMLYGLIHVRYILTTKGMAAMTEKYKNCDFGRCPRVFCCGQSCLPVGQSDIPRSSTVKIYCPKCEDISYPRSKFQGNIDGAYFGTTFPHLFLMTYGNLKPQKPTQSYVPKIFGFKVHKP

[4] = target: T2, GST-LHY, Q6R0H1
T2 chain: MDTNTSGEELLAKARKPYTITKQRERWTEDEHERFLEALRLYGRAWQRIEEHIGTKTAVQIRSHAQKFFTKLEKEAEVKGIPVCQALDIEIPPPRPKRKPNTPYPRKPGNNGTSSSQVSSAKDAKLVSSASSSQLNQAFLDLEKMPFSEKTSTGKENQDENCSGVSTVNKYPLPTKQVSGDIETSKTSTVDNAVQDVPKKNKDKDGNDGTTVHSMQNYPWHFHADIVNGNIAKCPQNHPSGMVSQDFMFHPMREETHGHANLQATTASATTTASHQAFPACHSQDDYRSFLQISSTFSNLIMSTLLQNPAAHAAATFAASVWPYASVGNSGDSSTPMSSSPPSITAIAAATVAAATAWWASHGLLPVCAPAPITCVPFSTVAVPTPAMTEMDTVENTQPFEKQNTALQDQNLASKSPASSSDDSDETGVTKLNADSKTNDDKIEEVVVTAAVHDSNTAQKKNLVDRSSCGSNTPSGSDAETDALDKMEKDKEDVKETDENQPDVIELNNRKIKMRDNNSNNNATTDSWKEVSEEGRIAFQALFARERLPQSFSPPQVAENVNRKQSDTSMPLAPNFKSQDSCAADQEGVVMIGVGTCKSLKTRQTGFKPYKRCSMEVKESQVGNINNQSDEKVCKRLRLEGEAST

[5] = target: T3, His-tagged CKB1, P40228
T3 chain: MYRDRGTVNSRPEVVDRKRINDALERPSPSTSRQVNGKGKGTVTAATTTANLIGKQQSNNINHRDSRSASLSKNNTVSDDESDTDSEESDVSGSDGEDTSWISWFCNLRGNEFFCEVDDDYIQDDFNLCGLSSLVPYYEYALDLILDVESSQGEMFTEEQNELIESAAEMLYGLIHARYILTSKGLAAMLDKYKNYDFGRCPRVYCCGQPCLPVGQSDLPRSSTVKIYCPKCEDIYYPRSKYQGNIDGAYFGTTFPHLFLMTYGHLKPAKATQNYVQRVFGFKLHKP

glutathione-S-transferase (GST) [GST: P08515], sequence (P08515 whole entry): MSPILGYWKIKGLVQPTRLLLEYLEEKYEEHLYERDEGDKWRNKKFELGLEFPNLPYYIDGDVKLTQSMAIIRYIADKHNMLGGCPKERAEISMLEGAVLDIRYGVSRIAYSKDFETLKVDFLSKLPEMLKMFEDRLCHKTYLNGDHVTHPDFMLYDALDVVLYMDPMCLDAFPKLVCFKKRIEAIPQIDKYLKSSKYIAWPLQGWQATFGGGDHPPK
GST-CCA1, P92973, sequence (P92973 whole entry): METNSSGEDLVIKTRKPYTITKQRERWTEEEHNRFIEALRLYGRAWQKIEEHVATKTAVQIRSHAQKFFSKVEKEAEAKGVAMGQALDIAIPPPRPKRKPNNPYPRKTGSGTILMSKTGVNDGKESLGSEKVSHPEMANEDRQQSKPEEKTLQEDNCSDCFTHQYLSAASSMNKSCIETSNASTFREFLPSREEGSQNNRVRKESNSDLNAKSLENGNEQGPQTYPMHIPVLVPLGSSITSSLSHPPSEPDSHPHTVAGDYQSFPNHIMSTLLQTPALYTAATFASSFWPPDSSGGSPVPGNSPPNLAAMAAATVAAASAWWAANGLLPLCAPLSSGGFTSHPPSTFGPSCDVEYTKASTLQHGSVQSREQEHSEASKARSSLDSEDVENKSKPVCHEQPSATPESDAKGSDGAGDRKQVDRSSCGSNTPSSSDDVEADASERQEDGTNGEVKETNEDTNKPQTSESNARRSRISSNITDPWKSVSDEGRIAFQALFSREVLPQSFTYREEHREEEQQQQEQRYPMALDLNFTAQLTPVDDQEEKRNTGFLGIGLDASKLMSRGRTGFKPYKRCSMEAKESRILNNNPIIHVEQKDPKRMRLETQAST

B1: CKA1 (α-subunit of Arabidopsis protein kinase CK2) (protein)
chain: MSKARVYTEVNVIRPKDYWDYESLIVQWGEQDDYEVVRKVGRGKYSEVFEGINVNSKEKCIIKILKPVKKKKIRREIKILQNLCGGPNIVKLLDVVRDQHSKTPSLIFEYVNSTDFKVLYPTLTDYDIRYYIYELLKALDFCHSQGIMHRDVKPHNVMIDHELRKLRLIDWGLAEFYHPGKEYNVRVASRYFKGPELLVDLQDYDYSLDMWSLGCMFAGMIFRKEPFFYGHDNQDQLVKIAKVLGTDELNAYLNKYQLELDPQLEALVGRHSRKPWSKFINADNQHLVSPEAIDFLDKLLRYDHQDRLTAKEAMAHAYFAQVRAAETSRMRSQ
- in vitro phosphorylation with [γ-32P]ATP, SDS-PAGE autoradiography [1]: a large amount of CKA1 (280 ng) phosphorylates GST-CCA1 but not GST
- in vitro phosphorylation with [γ-32P]ATP, SDS-PAGE autoradiography [2]: a large amount of CKA1 (280 ng) phosphorylates GST-CCA1 but not GST
- phosphorylation of GST-CCA1 by 14 ng of CKA1 with 35 ng of β-subunit [3]: a strong stimulation of the CCA1 phosphorylation was observed by adding either CKB1 or CKB3
- phosphorylation of GST-LHY by CKA1 with added β-subunit [3]: this phosphorylation was enhanced by adding either CKB1 or CKB3
- in vitro phosphorylation with [γ-32P]ATP, SDS-PAGE autoradiography [4]: CKA1, the α-subunit of CK2, could phosphorylate LHY
- phosphorylation of GST-CCA1 by 14 ng of CKA1 with 35 ng of β-subunit [5]: a strong stimulation of the CCA1 phosphorylation was observed by adding either CKB1 or CKB3
- phosphorylation of GST-LHY by CKA1 with added β-subunit [5]: this phosphorylation was enhanced by adding either CKB1 or CKB3

Reference: US6727407
